According to US20230303698A1 (HARBOUR BIOMED SHANGHAI, published 2023):

B1: PR003563 (bispecific antibody, human IgG1, kappa, L234A L235A)
light: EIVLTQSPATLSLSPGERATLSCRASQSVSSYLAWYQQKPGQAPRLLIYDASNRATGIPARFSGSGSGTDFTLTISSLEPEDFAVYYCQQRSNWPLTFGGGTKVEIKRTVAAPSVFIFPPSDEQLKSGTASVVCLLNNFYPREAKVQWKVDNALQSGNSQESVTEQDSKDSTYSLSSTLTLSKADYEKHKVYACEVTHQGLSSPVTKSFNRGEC
heavy: EVQLLESGGGLVQPGGSLRLSCAASGFTFSSFVMSWVRQAPGKGLEWVSTISGSGRSTYYADSVKGRFTISRDNSKNTLHLQMNSLRAEDTAVYYCAKDAAAAGTKFDYWGQGTLVTVSSASTKGPSVFPLAPSSKSTSGGTAALGCLVKDYFPEPVTVSWNSGALTSGVHTFPAVLQSSGLYSLSSVVTVPSSSLGTQTYICNVNHKPSNTKVDKKVEPKSCDKTHTCPPCPAPEAAGGPSVFLFPPKPKDTLMISRTPEVTCVVVDVSHEDPEVKFNWYVDGVEVHNAKTKPREEQYNSTYRVVSVLTVLHQDWLNGKEYKCKVSNKALGAPIEKTISKAKGQPREPQVYTLPPSREEMTKNQVSLTCLVKGFYPSDIAVEWESNGQPENNYKTTPPVLDSDGSFFLYSKLTVDKSRWQQGNVFSCSVMHEALHNHYTQKSLSLSPGEPKSSDKTHTPPPPPRTEVQLVESGGGVVQPGGSLRLSCAASGFTFSNYAMTWVRQAPEKGLEWVSSISGSGVSTYYADSVKGRFTISRDNSKNTLYLQMTRLTAEDTAVYFCAKEGSSETDDHYYNVDVWGQGTTVTVSS
notes: Structure 1, IgG-VH; CLDN18.2 Fab from PR002726, 4-1BB VH from PR001760; linker H1_15-RT; human IgG1 (AAG); also called CLDN18.2×4-1BB bispecific antibody molecule
B2: PR003564 (bispecific antibody, human IgG1, kappa, L234A L235A)
light: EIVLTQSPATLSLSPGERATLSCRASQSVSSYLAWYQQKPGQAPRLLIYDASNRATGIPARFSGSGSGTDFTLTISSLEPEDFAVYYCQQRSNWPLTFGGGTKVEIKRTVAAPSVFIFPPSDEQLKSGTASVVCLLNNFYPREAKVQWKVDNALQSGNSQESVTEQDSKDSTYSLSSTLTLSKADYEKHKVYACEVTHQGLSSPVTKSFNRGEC
heavy: EVQLLESGGGLVQPGGSLRLSCAASGFTFSSFVMSWVRQAPGKGLEWVSTISGSGRSTYYADSVKGRFTISRDNSKNTLHLQMNSLRAEDTAVYYCAKDAAAAGTKFDYWGQGTLVTVSSASTKGPSVFPLAPSSKSTSGGTAALGCLVKDYFPEPVTVSWNSGALTSGVHTFPAVLQSSGLYSLSSVVTVPSSSLGTQTYICNVNHKPSNTKVDKKVEPKSCDKTHTCPPCPAPEAAGGPSVFLFPPKPKDTLMISRTPEVTCVVVDVSHEDPEVKFNWYVDGVEVHNAKTKPREEQYNSTYRVVSVLTVLHQDWLNGKEYKCKVSNKALGAPIEKTISKAKGQPREPQVYTLPPSREEMTKNQVSLTCLVKGFYPSDIAVEWESNGQPENNYKTTPPVLDSDGSFFLYSKLTVDKSRWQQGNVFSCSVMHEALHNHYTQKSLSLSPGEPKSSDKTHTPPPPPRTEVQLLESGGGLVQPGGSLRLSCAASGFIFSNFAMTWVRQPPEKGLKWVSSINGSGFNTYYTDSVKGRFTISRDNSRNTLYLQMNRLTAEDTAVYFCAKEGSSETDDHYYNVDVWGQGTTVTVSS
notes: Structure 1, IgG-VH; CLDN18.2 Fab from PR002726, 4-1BB VH from PR001836; linker H1_15-RT; human IgG1 (AAG); also called CLDN18.2×4-1BB bispecific antibody molecule
B3: PR001760, anti-4-1BB heavy-chain antibody 1016P0011G10 (antibody, human IgG1, V domains shown)
VH: EVQLVESGGGVVQPGGSLRLSCAASGFTFSNYAMTWVRQAPEKGLEWVSSISGSGVSTYYADSVKGRFTISRDNSKNTLYLQMTRLTAEDTAVYFCAKEGSSETDDHYYNVDVWGQGTTVTVSS
notes: Fully human heavy-chain antibody (HCAb), heavy chain dimer without light chains; also called anti-4-1BB HCAb antibody
B4: PR003562 (bispecific antibody, human IgG1, kappa, L234A L235A)
light: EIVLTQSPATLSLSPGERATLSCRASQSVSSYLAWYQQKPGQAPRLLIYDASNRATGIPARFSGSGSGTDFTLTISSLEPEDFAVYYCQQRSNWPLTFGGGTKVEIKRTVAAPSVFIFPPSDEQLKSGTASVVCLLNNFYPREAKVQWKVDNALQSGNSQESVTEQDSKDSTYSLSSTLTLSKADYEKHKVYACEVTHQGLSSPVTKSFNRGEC
heavy: EVQLLESGGGLVQPGGSLRLSCAASGFTFSSFVMSWVRQAPGKGLEWVSTISGSGRSTYYADSVKGRFTISRDNSKNTLHLQMNSLRAEDTAVYYCAKDAAAAGTKFDYWGQGTLVTVSSASTKGPSVFPLAPSSKSTSGGTAALGCLVKDYFPEPVTVSWNSGALTSGVHTFPAVLQSSGLYSLSSVVTVPSSSLGTQTYICNVNHKPSNTKVDKKVEPKSCDKTHTCPPCPAPEAAGGPSVFLFPPKPKDTLMISRTPEVTCVVVDVSHEDPEVKFNWYVDGVEVHNAKTKPREEQYNSTYRVVSVLTVLHQDWLNGKEYKCKVSNKALGAPIEKTISKAKGQPREPQVYTLPPSREEMTKNQVSLTCLVKGFYPSDIAVEWESNGQPENNYKTTPPVLDSDGSFFLYSKLTVDKSRWQQGNVFSCSVMHEALHNHYTQKSLSLSPGEPKSSDKTHTPPPPPRTEVQLLESGGGLVQLGGSLRLSCAASGFTFSRYAMTWVRQAPEKGLEWVSSISGSGDDTYYGDSVKGRFTISRDNSQNTVYLQMNSLRAEDTAVYFCAKEKAGTTGDYYYNVDVWGQGTTVTVSS
notes: Structure 1, IgG-VH; CLDN18.2 Fab from PR002726, 4-1BB VH from PR001758; linker H1_15-RT; human IgG1 (AAG); also called CLDN18.2×4-1BB bispecific antibody molecule

Each binder was assayed against T1, human 4-1BB (human, UniProt Q07011 24-255) (assay: flow cytometry, CHO-K1/hu 4-1BB cells).
T1 construct: whole, on cells; Expressed on CHO-K1/hu 4-1BB cells (GenScript, M00538); also called CD137; TNFRSF9
T1 sequence (Q07011 24-255): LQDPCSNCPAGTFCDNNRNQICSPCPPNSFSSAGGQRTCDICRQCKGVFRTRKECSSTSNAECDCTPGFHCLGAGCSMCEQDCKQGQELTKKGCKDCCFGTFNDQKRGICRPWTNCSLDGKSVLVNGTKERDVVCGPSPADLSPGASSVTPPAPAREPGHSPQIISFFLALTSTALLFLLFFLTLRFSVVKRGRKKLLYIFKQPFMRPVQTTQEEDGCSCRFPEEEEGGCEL
Procedure: The binding ability of the binding protein to a CHO-K1 cell line CHO-K1/hu 4-1BB (GenScript, M00538) highly expressing human 4-1BB and a CHO-K1 cell line CHO-K1/cyno 4-1BB (GenScript, M00569) highly expressing cynomolgus monkey 4-1BB were determined by flow cytometry FACS. Specifically, the cells were digested and resuspended in a complete medium, and the cell density was adjusted to 2×10⁶ cells/mL. […] The cells were incubated at 4° C. for 1 h away from light. Then, the cells in each well were rinsed twice with 100 μL of pre-cooled FACS buffer (PBS buffer containing 0.5% BSA) and centrifuged at 500 g at 4° C. for 5 min, and then the supernatant was discarded. […] Then, the cells in each well were then rinsed twice with 200 μL of pre-cooled FACS buffer and centrifuged at 500 g at 4° C. for 5 min, and then the supernatant was discarded. Finally, a pre-cooled FACS buffer was added at 200 μL/well to resuspend the cells. Fluorescence signal values were read using a BD FACS CANTOII flow cytometer or an ACEA NovoCyte flow cytometer, and the data were processed and analyzed using FlowJo v10 (FlowJo, LLC) software.

Binder | binding result
B1 | binds
B2 | binds
B3 | binds
B4 | binds
